Experimental data: patent US10328100B2 (Amorphical Ltd., priority 2007, dated 2019)
Several values for one entry are separate records, joined by “and”; a condition that tells them apart may be missing. Equal entries are not always repeated. Entries after “also recorded” stand apart in the source; their conditions may differ.

Tests used:
[1] = tested on: GAP65 transcript; experiment: GAP65 silencing by in vivo injections of GAP65 dsRNA (RNAi) to intermolt crayfish; design: species or system Cherax quadricarinatus
Description: Relative GAP65 transcript levels in the gastrolith epithelial disc following silencing using GAP65 dsRNA were measured using realtime RT-PCR and presented in FIG. 4. GAP65 levels were evaluated in crayfish injected with ecdysone and GAP65 dsRNA, ecdysone and dsRNA carrier, ecdysone and C. quadricarinatus vitellogenin (CqVg) dsRNA, and a control injected with both carriers. CqVg an hepatopancreatic specific gene found mostly in reproductive females, served as a control for sequence specific silencing. […] In the crayfish injected with ecdysone and CqVg dsRNA, GAP65 transcript levels were similar to the levels detected in the ecdysone and dsRNA carrier injected group. In the control carriers injected crayfish GAP65 transcript levels were higher than the levels found in the ecdysone and GAP65 dsRNA injected crayfish but lower than the levels detected in both the ecdysone and dsRNA injected, and the ecdysone CqVg dsRNA injected crayfish.
In order to test the role of GAP65 in gastrolith formation, an RNAi (RNA interference) technique using in vivo injections of GAP65 dsRNA to intermolt crayfish was applied. The initiation of gastrolith formation was achieved by injection of ecdysone. In FIG. 5 gastrolith of crayfish injected with either ecdysone+GAP65 dsRNA, ecdysone+dsRNA carrier, or with carriers of both ecdysone and dsRNA can be seen. FIG. 5A is a lateral view of a representative gastrolith dissected from each treatment group. […] In the control carriers injected the gastrolith appeared undeveloped or in an initial growth stage. […] The control carrier gastrolith was too small to be detected by the X-ray imaging.
Scanning electron microscope (SEM) images of gastroliths dissected from crayfish injected with GAP65 dsRNA and ecdysone, and from crayfish injected only with ecdysone and dsRNA carrier, are presented in FIG. 6. FIG. 6A-B depict images of a cross section through the central part of the gastrolith. […] The dense mineral layered structure observed in the gastrolith of ecdysone and carrier injected is replaced with a loosely packed columnar mineralization structure, which resembles hollow straws, in the gastrolith of ecdysone and GAP65 dsRNA injected crayfish.

[2] = tested on: C. quadricarinatus; conditions: cited from earlier work
[3] = tested on: GAP10 transcripts; experiment: in vivo silencing of GAP10 transcripts during premolt; design: species or system C. quadricarinatus
Description: In order to examine the effect of in vivo silencing of GAP10 transcripts during premolt, intermolt males (MMI=0), each weighing 5-10 g were divided to four groups. Ten animals were injected daily with both ecdysone, and dsRNA of GAP 10; eight were injected with ecdysone; six were injected with both ecdysone and dsRNA of CqVg; and four were injected with ecdysone carrier only, i.e., 10% ethanol in Diethyl pyrocarbonate-treated doubly distilled water. Injections were given into the sinus of the first abdominal segment. For each individual crayfish the experiment was terminated at MMI=0.1, at which time the animal was anesthetized and its gastroliths were dissected out. Premolt duration was defined as the number of days until termination. […] Another group was injected with ecdysone and CqVg dsRNA (a hepatopancreatic-specific gene found mostly in reproductive females) and served as a control for sequence-specific silencing.
For analysis of the gastrolith surface roughness, optical phase interference microscopy (OPIM) analysis was used, providing topographic images of representative surface samples from each group (FIG. 37B).

[4] = stability of ACC held at room temperature, tested by Raman spectroscopy; format: physicochemical
Description: The precipitated calcium carbonate was checked over long periods for the amorphous/crystalline state.
(§1) 100 μl of 1M CaCl2 was added to 10 ml double distilled water (final concentration: 10 mM). 80 μl from the protein extraction solution (1.2 μg/μl) were added (final concentration ˜10 μg/ml), 100 μl of 1M Na2CO3 (final concentration: 10 mM) was added following an intensive shaking. The vial was centrifuged for 5 min at 4000 rpm, the precipitate was smeared over a glass slide and instantly dried with air flow. […] The observations were confirmed by Raman spectroscopy.

[5] = in vitro calcium carbonate precipitation assay testing the stabilization of ACC; format: physicochemical; conditions: for form of calcium carbonate precipitated in the presence of the additive: in vitro precipitation from calcium salt and carbonate
Source text: Analysis of the product may comprise testing the resultant CaCO3 by various methods (as XRD, electron diffraction, SEM) to verify its amorphous nature. […] The phosphate peak at 950 cm^−1, is proportional to the phosphate content in the sample. Yet, the ratio between 1080 to 950 cm^−1 is proportional, but not directly indicative of the CO3^2−/[…] ratio.
FIG. 7 presents precipitation results of calcium carbonate in the presence of GAP65 and in the presence of other protein (trypsin). SEM images in FIG. 7A indicate the distinct polymorph of calcium carbonate in each treatment.
as §1
100 μl of 1M CaCl2 were added to 10 ml double-distilled water (DDW), attaining the final concentration of […]. 200 μl of P-serine (P-Ser) solution (100 mM) were added to the solution, attaining 2 mM of P-Ser. 100 μl of 1M Na2CO3 (final concentration: 10 mM) were added following an intensive shaking. The vial was centrifuged for 5 min at 4000 rpm at room temperature. The upper solution was removed and the precipitation was smeared over a glass slide and instantly dried by air flow.

[6] = isoelectric focusing then SDS-PAGE of gastrolith protein fraction; format: physicochemical; conditions: two spots of ~9 and ~11 kDa identified as GAP10, respectively
Description: (§2) Proteins that were both phosphorylated and calcium-binding were prepared for LC-MS. Two of them, migrating at apparent molecular masses of ˜9 and ˜11 kDa (circled), were identified as GAP10 (FIG. 33B), and their pIs were calculated as 5 and 5.5, respectively. Since GAP10 has a mildly acidic pI, it is negatively charged at the pH of the gastrolith pouch, which is approximately 8.7.

[7] = calcium binding on nitrocellulose membrane after SDS-PAGE; conditions: gastrolith protein fraction transferred to nitrocellulose membrane
Description: FIGS. 33A-B. relate to the identification of GAP10 and characterization of its phosphorylation and calcium-binding properties; FIG. 33A, left: SDS-PAGE stained with Coomassie blue; middle: Staining of the same gel for phosphoproteins; right: transfer of the same fraction to a nitrocellulose membrane and incubation with […]. Spots identified as GAP10 by LC-MS are circled. Abbreviations: PC (positive control).
as §2

## C[C@H]([C@H](O)CCC(C)(C)O)[C@H]1CC[C@@]2(O)C3=CC(=O)[C@@H]4C[C@@H](O)[C@@H](O)C[C@]4(C)[C@H]3CC[C@]12C [ecdysone]
[1]; SEM x15000
  gastrolith spherule size: 40-60 nm
[1]; cross section through central part of gastrolith
  gastrolith structure by SEM: normal gastrolith appearance
[1]; dissected gastrolith, lateral view, gastrolith formation initiated by ecdysone
  gastrolith morphology: normal with no deformities
[1]; dorsal X-ray view prior to dissection
  gastrolith mineral density by X-ray imaging: normal with no effects on mineral densities
[2]; known for ecdysone administration
  typical induced premolt duration until ecdysis: 10 to 14 days
[2]; reached 1-2 days before the molt event
  peak observed molt mineralization index (MMI): 0.125-0.145
[3]; OPIM topographic images
  Swedish height (SH) of gastrolith surface: 4.4±0.5 μm
[3]; repeated daily injections to intermolt males, dsRNA given together with ecdysone
  average premolt duration (number of days until reaching MMI=0.1): 10.1 days
[3]; top view of dissected gastroliths
  gastrolith surface appearance: fairly smooth

B1: GAP65: Negatively charged glycoprotein of about 65 kDa from Cherax quadricarinatus gastrolith, SEQ ID NO. 1; used as enriched DEAE fraction 17 (protein, listed as Cherax quadricarinatus)
chain: MIRRVTTPLLALLLAGWVVAQTTDMDPEQYCARRDDEYFRKDFGDPAEFASDYRANCGVYYRCVPAPAGKRSISASQCQSELFFDVQQQICERKSKVTNCEQIDKEHPPQPFWPLREGEESQCKSGEIMCGSGECLPQHRFCDENSDCADGSDENICTPDKDPNRADVCEPRTCLWSQGCFCSVDGTRIPGDLTVDQTPQMITITFTGAINERNFRIFQDVFKDTVKHKGNDCTPKGTFFISHGFSNYSAIQELNRVGHEIAVSSITNNDNPDYWSKLSALDYEAEMDGARLIIEKFANITANEVLGIRVPKQRVGGNRQFRMMVDWGFLYDSSISAPMGRLPLWPYTLMHRMPHKCLGNDQNCPSQNFTVWEMVINEMDRRDDPQFDERLTGCHFVDQCANIQSPEQFRAFLDNNLARHYRTNRAPLGLHFTSGYFETRRDFLREFVKWVRETALSGDYFFVTMQQVINWMEAPTELTAINNFQEWKGKCEVKGQPYCSLPNPCPKKVPRIFPNEEEMFLYTCMECPNTYPWLGDPHGNGFLDIPDF
[4]; 6.5-month old ACC, room temperature
  Raman spectra (around the 1085 peak) compared with calcite: mixture seemingly comprising ACC and vaterite
[4]; SEM 40 days after the precipitation
  nanosphere size of ACC: 50-500 nm
[4]; room temperature, Raman spectra
  time the ACC remained stable (amorphous state kept): at least 1 months
[5]; 10 mM CaCl2, 10 mM Na2CO3, ~10 μg/ml protein, estimated
  ACC share of the total CaCO3: at least 50%
[5]; after precipitation and drying, broad peak about 1080 cm^-1 indicates ACC
  Raman spectroscopy (RS) of the CaCO3 precipitate: distinct spectra of ACC
[5]; SEM
  form of calcium carbonate precipitated in the presence of the additive: amorphous CaCO3; also recorded: amorphous form (ACC)
[5]; precipitation in the presence of GAP65, confirmed by Raman spectroscopy
  CaCO3 deposits characterized by polarized microscope: mixture of calcite, vaterite, and ACC

B2: GAP10: Gastrolith protein of Cherax quadricarinatus, calculated 10 kDa, SEQ ID NO. 24 (fragment SEQ ID NO. 25) (protein, listed as Cherax quadricarinatus)
chain: MKIFILLVVIGVVSAQLGAGQVGGAAPAQGAGGAAGVGGPGAAPVNPYGPKVYGSGLNNPFAFPHNTWEVSRAAAVAATNPNLYVRVESDGGWEFTNRFGEKVDVYNSFGQELD
[6]
  pI: 5 and 5.5
[7]
  calcium binding: calcium-binding ability

B3: trypsin: Other (inert) protein used in equivalent amount as control in the precipitation assay (protein, UniProt P00760 24-246, looked up)
Serine protease 1: IVGGYTCGANTVPYQVSLNSGYHFCGGSLINSQWVVSAAHCYKSGIQVRLGEDNINVVEGNEQFISASKSIVHPSYNSNTLNNDIMLIKLKSAASLNSRVASISLPTSCASAGTQCLISGWGNTKSSGTSYPDVLKCLKAPILSDSSCKSAYPGQITSNMFCAGYLEGGKDSCQGDSGGPVVCSGKLQGIVSWGSGCAQKNKPGVYTKVCNYVSWIKQTIASN
[5]; SEM
  form of calcium carbonate precipitated in the presence of the additive: rapid crystallization
[5]; same conditions, control protein, SEM
  size of calcium carbonate crystals formed: 10 μm
